In the data set the test system is LL-37 (native) (human). Briefly: EMSA. The following applies: EMSA with 5' 6-FAM PCR products, as previously published; buffer, salt, pH and temperature not in the material.

In the case of lecB fragment, the Kd was determined as 12.8 µM. Consider mucA fragment, for which the equilibrium dissociation constant (Kd) is 12.8 µM. Regarding algT (algU) fragment, the Kd came out at 12.8 µM.

What is called Kd is the free concentration of one partner at which half of the binding sites on the other are occupied at equilibrium, for simple one-to-one binding.
